Target: alpha-thrombin (Homo sapiens) (UniProt P00734+P00734)
Test: flow
Conditions: bead-based fluorescence; measured here; sequence not given

| Substance | Kd |
| --- | --- |
| Tasset thrombin aptamer | 10.4 nM |
| Bock thrombin aptamer | 2.1 nM |
